Assay results as given in US20160257744A1 (Genentech, published 2016).

Key:
interleukin 4 (IL4) [1] = molecular target: T1, interleukin 4 (IL4) (UniProt P05112 25-153); test: phage ELISA, Fab-displaying phage on IL4
T1 sequence (looked up): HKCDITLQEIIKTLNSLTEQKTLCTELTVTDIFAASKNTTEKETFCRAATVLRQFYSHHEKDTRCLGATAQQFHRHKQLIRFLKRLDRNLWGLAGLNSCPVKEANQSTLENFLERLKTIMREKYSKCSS

interleukin 5 (IL5) [2] = molecular target: T2, interleukin 5 (IL5) (human, UniProt P05113 20-134); test: phage ELISA: direct binding of the phage clone to antigen-coated wells (NB = no detectable binding)
T2 construct: also called human IL5 (R&D Systems)
T2 sequence (looked up): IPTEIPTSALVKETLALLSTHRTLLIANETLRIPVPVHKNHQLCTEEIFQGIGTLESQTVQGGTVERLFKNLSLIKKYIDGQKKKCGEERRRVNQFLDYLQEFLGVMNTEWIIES

interleukin 13 (IL13) [3] = molecular target: T3, interleukin 13 (IL13) (UniProt P35225 35-146, limits assumed); test: as above
interleukin 4 (IL4) [4] = molecular target: T1, interleukin 4 (IL4); test: phage competition ELISA: Fab-phage incubated 2 h with serial dilutions of the antigen in solution, unbound phage captured on antigen-coated wells, anti-M13-HRP; IC50 = antigen concentration inhibiting 50% of phage binding
Method: (§1) Fab displaying phage was first incubated with serial dilutions of the respective antigens in solution for 2 h, unbound phage was then briefly captured by antigen coated ELISA wells and detected with anti-M13 HRP conjugate. The concentration of antigen inhibiting 50% of phage binding to antigen coated well is calculated as IC₅₀. NB denotes no detectable binding of phage clone directly to the antigens coated wells.

HER2 ECD [5] = molecular target: T4, HER2 ECD; test: ELISA: human IgG1 at 250 nM on protein-coated wells, anti-Fc-HRP
T4 construct: one of the irrelevant proteins; also called irrelevant protein coated on ELISA wells

BSA [6] = molecular target: T5, BSA (bovine, UniProt P02769); test: as above
T5 construct: negative control protein; also called irrelevant protein coated on ELISA wells

interleukin 5 (IL5) [7] = molecular target: T2, interleukin 5 (IL5); test: as above
interleukin 13 (IL13) [8] = molecular target: T3, interleukin 13 (IL13); test: as above
interleukin 5 (IL5) [9] = molecular target: T2, interleukin 5 (IL5); test: SPR (Biacore), Fab over immobilized human IL5, 25 °C
HER2 ECD [10] = molecular target: T4, HER2 ECD; test: ELISA: IgG at 100 nM on immobilized protein, anti-IgG-HRP [panel A]
BSA [11] = molecular target: T5, BSA; test: as above
interleukin 4 (IL4) [12] = molecular target: T1, interleukin 4 (IL4); test: ELISA: human IgG1 at 250 nM on protein-coated wells, anti-Fc-HRP
interleukin 4 (IL4) [13] = molecular target: T1, interleukin 4 (IL4); test: phage ELISA: direct binding of the phage clone to antigen-coated wells (NB = no detectable binding)
interleukin 5 (IL5) [14] = molecular target: T2, interleukin 5 (IL5); test: phage competition ELISA: Fab-phage incubated 2 h with serial dilutions of the antigen in solution, unbound phage captured on antigen-coated wells, anti-M13-HRP; IC50 = antigen concentration inhibiting 50% of phage binding
Method: as §1

T3 sequence (P35225 35-146 limits assumed): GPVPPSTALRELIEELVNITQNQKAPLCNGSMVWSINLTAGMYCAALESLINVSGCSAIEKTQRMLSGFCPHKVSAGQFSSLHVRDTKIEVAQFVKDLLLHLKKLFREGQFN
T5 sequence (P02769 25-607 limits assumed): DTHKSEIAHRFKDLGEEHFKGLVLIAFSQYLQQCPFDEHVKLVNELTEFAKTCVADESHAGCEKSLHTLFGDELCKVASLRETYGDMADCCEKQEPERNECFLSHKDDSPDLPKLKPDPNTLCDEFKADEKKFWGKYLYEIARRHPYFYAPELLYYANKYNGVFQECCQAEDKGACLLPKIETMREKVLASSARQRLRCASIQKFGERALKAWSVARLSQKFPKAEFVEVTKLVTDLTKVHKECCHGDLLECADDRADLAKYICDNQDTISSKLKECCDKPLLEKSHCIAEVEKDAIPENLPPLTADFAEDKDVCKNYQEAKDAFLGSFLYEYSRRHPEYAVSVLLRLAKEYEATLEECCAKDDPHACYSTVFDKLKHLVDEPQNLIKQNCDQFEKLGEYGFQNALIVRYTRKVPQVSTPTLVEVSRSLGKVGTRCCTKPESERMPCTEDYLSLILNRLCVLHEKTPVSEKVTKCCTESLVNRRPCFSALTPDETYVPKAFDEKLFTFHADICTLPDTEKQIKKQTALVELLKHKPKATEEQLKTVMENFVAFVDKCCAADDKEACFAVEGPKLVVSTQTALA

B1: humanized antibody 19C11 (hu19C11) wild-type Fab displayed on M13 phage (Fab, V domains shown)
VH: EVQLVQSGAEVKKPGASVKVSCKASGYTFTDYSMHWVRQAPGQGLEWIVWINTETGEPTYADDFKGRVTITRDTSTSTAYLELSSLRSEDTAVYYCARGGIFYGMDYWGQGTLVTVSS
VL: DIQMTQSPSSLSASVGDRVTITCKASQSVINDAAWYQQKPGKAPKLLIYYTSHRYTGVPSRFSGSGSGTDFTLTISSLQEDFATYYCQQDYTSPWTFGQGTKVEIKR
notes: Phagemid pV0115: light chain with gD expression tag fused to its C-terminus; VH-CH1 followed by hinge piece KTHTC and M13 minor coat protein p3 (bivalent Fab display); Humanized in germline VH1 / kappa I backbone; also called hu19C11 wt; Fab-displaying phage
Q: For B1, which EC50 (interleukin 4 (IL4) [1]) is on record?
A: 1 nM

Q: Does B1 bind (interleukin 5 (IL5) [2])?
A: no binding

Q: Does B1 bind (interleukin 13 (IL13) [3])?
A: no binding

Q: What about the IC50 (interleukin 4 (IL4) [4]) of the same binder?
A: 1.1 nM

B2: humanized antibody 19C11 (hu19C11) as IgG (antibody, V domains shown)
VH: EVQLVQSGAEVKKPGASVKVSCKASGYTFTDYSMHWVRQAPGQGLEWIVWINTETGEPTYADDFKGRVTITRDTSTSTAYLELSSLRSEDTAVYYCARGGIFYGMDYWGQGTLVTVSS
VL: DIQMTQSPSSLSASVGDRVTITCKASQSVINDAAWYQQKPGKAPKLLIYYTSHRYTGVPSRFSGSGSGTDFTLTISSLQEDFATYYCQQDYTSPWTFGQGTKVEIKR
notes: IgG; also called the antibody as IgG
Q: What does the source list for B2?
A: binding result (HER2 ECD [5]): no binding (tested: 250 nM); binding result (BSA [6]): no binding (tested: 250 nM); binding result (interleukin 5 (IL5) [7]): no binding (tested: 250 nM); binding result (interleukin 13 (IL13) [8]): no binding (tested: 250 nM)

B3: E7 purified as Fab (Fab, V domains shown)
VH: EVQLVQSGAEVKKPGASVKVSCKASGYTFTDYFIHWVRQAPGQGLEWIAGIVYDATGFTTYADDFKGRVTITRDTSTSTAYLELSSLRSEDTAVYYCARGGIFYGMDYWGQGTLVTVSS
VL: DIQMTQSPSSLSASVGDRVTITCKASQSVINDAAWYQQKPGKAPKLLIYYTSHRYTGVPSRFSGSGSGTDFTLTISSLQEDFATYYCQQDYTSPWTFGQGTKVEIKR
notes: also called IL4/IL5 dual specific clone E7
Q: With B3 as the binder, how does the Kd (interleukin 5 (IL5) [9]) read?
A: 905 nM

B4: F2 as human IgG1 (antibody, V domains shown)
VH: EVQLVQSGAEVKKPGASVKVSCKASGYTFTDYSMHWVRQAPGQGLEWIGIIFYTGHTYYADDFKGRVTITRDTSTSTAYLELSSLRSEDTAVYYCARGGIFYGMDYWGQGTLVTVSS
VL: DIQMTQSPSSLSASVGDRVTITCKASQSVINDAAWYQQKPGKAPKLLIYYTSHRYTGVPSRFSGSGSGTDFTLTISSLQEDFATYYCQQDYTSPWTFGQGTKVEIKR
Q: Does B4 bind (HER2 ECD [5])?
A: no binding (tested: 250 nM)

Q: Does B4 bind (BSA [6])?
A: no binding (tested: 250 nM)

Q: Does B4 bind (interleukin 5 (IL5) [7])?
A: no binding (tested: 250 nM)

B5: 1C36, affinity-matured variant of E7, as IgG (antibody, V domains shown)
VH: EVQLVQSGAEVKKPGASVKVSCKASGYTFTDYFIHWVRQAPGQGLEWIGGIVYDATGFTTYAEEFKGRVTITRDTSTSTAYLELSSLRSEDTAVYYCARGGIFYGMDYWGQGTLVTVSS
VL: DIQMTQSPSSLSASVGDRVTITCKASQSVINDAAWYQQKPGKAPKLLIYYTSHRYTGVPSRFSGSGSGTDFTLTISSLQEDFATYYCQQDYTHPWTFGQGTKVEIKR
Q: Does B5 bind (HER2 ECD [10])?
A: no binding (tested: 100 nM)

Q: Does B5 bind (BSA [11])?
A: no binding (tested: 100 nM)

B6: 1C60, affinity-matured variant of E7, as IgG (antibody, V domains shown)
VH: EVQLVQSGAEVKKPGASVKVSCKASGYTFTDYFIHWVRQAPGQGLEWIAGIVYDATGFTVYADDFKGRVTITRDTSTSTAYLELSSLRSEDTAVYYCARGGIFYGMDYWGQGTLVTVSS
VL: DIQMTQSPSSLSASVGDRVTITCKASQSVINDAAWYQQKPGKAPKLLIYYTSHRYTGVPSRFSGSGSGTDFTLTISSLQEDFATYYCQQDYKHPWTFGQGTKVEIKR
Q: Does B6 bind (HER2 ECD [10])?
A: no binding (tested: 100 nM)

Q: Does B6 bind (BSA [11])?
A: no binding (tested: 100 nM)

B7: 5A as human IgG1 (antibody, V domains shown)
VH: EVQLVQSGAEVKKPGASVKVSCKASGYTFTDYDIHWVRQAPGQGLEWIVWINTETGEPTYADDFKGRVTITRDTSTSTAYLELSSLRSEDTAVYYCAREILFYGMDYWGQGTLVTVSS
VL: DIQMTQSPSSLSASVGDRVTITCKASQSVINDAAWYQQKPGKAPKLLIYYTSHRYTGVPSRFSGSGSGTDFTLTISSLQEDFATYYCQQDYTSPWTFGQGTKVEIKR
Q: Which results are given for B7?
A: binding result (HER2 ECD [5]): no binding (tested: 250 nM); binding result (BSA [6]): no binding (tested: 250 nM); binding result (interleukin 4 (IL4) [12]): no binding (tested: 250 nM); binding result (interleukin 13 (IL13) [8]): no binding (tested: 250 nM)

B8: 5A, anti-IL5 specific variant of hu19C11, Fab displayed on phage (Fab, V domains shown)
VH: EVQLVQSGAEVKKPGASVKVSCKASGYTFTDYDIHWVRQAPGQGLEWIVWINTETGEPTYADDFKGRVTITRDTSTSTAYLELSSLRSEDTAVYYCAREILFYGMDYWGQGTLVTVSS
VL: DIQMTQSPSSLSASVGDRVTITCKASQSVINDAAWYQQKPGKAPKLLIYYTSHRYTGVPSRFSGSGSGTDFTLTISSLQEDFATYYCQQDYTSPWTFGQGTKVEIKR
notes: also called clone 5A
Q: Does B8 bind (interleukin 4 (IL4) [13])?
A: no binding

Q: Does B8 bind (interleukin 13 (IL13) [3])?
A: no binding

Q: What about the IC50 (interleukin 5 (IL5) [14]) of the same binder?
A: ~1000 nM
